One block for each compound: values may come before it.
How the values were obtained:
XdpB (XdpBwt) [1] = biological target: T1, XdpB (XdpBwt) (Agrobacterium tumefaciens, UniProt A0A0A0VDJ9); test: nanoDSF melting temperature; type: binding; set-up: full length with N-terminal His tag (XdpBwt), made in E. coli, Ni-NTA and gel filtration; in vitro flavinated with FMN for kinetics; C-terminal residue Asn365; conditions: apo form Tm 38.9 °C, 1 °C/min
XdpB (XdpBwt) [2] = biological target: T1, XdpB (XdpBwt); test: spectrophotometric NADH oxidation at […] nm, Lineweaver-Burk; conditions: read-out: Km^GTN; NADH co-substrate; pH 8; 25 °C; in vitro flavinated, recalculated to FMN saturation
[3] = biological target: OPR3 (Solanum lycopersicum) (UniProt Q9FEW9); conditions: cited from earlier work
[4] = biological target: XdpA, short chain dehydrogenase of the xdo operon (Agrobacterium bohemicum R89-1); test: SEC; gel filtration chromatography, with SDS PAGE for the subunit
[5] = tested on: NC(=O)C1=CN([C@@H]2O[C@H](COP(=O)(O)OP(=O)(O)OC[C@H]3O[C@@H](n4cnc5c(N)ncnc54)[C@H](O)[C@@H]3O)[C@@H](O)[C@H]2O)C=CC1; test: purified protein; conditions: NADH co-substrate, pH 8, 25 °C, in vitro flavinated, recalculated to FMN saturation, except NADH varied (0.015 to 0.3 mM), co-substrate GTN
[6] = biological target: XdpR, TetR family transcriptional regulator of the xdo operon (Agrobacterium bohemicum R89-1); test: SEC + native gel or EMSA; gel filtration; native (blue native, 7% PAGE) and SDS electrophoresis

T1 sequence (A0A0A0VDJ9 entry or part of it): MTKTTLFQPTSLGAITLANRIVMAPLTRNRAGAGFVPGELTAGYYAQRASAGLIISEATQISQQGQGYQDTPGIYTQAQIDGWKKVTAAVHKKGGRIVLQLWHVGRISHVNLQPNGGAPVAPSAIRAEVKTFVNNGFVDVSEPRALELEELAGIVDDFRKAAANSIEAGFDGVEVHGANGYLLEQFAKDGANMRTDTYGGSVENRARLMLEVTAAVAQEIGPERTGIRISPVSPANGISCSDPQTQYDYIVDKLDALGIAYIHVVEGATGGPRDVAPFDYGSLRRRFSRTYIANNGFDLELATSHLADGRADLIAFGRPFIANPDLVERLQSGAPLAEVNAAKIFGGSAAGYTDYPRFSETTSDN
OPR3, sequence (Q9FEW9 whole entry): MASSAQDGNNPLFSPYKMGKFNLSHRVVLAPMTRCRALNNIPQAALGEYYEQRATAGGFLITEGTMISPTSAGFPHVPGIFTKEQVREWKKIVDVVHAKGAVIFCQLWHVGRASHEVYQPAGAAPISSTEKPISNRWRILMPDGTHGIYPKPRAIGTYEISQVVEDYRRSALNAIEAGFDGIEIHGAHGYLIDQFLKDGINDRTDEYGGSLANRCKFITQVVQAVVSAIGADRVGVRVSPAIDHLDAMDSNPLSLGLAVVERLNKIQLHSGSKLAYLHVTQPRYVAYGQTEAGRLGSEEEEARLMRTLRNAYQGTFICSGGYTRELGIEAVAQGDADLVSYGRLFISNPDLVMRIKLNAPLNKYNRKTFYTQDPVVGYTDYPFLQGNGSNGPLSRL

Compound: Cc1cc2nc3c(=O)[nH]c(=O)nc-3n(C[C@H](O)[C@H](O)[C@H](O)COP(=O)(O)O)c2cc1C [FMN, flavin mononucleotide]
melting temperature of in vitro flavinated form (XdpB (XdpBwt) [1]): 39.8 °C

Compound: O=[N+]([O-])OCC(CO[N+](=O)[O-])O[N+](=O)[O-] [GTN, glycerol trinitrate]
Km (XdpB (XdpBwt) [2]): 460 ± 132 µM

Compound: OPR3 (from UniProt Q9FEW9)
Kd [3]: 30 µM

stoichiometry N [4]: 2
Compound: XdpA, short chain dehydrogenase of the xdo operon (enzyme)

Compound: XdpB (XdpBwt) (Agrobacterium tumefaciens)
Km [5]: 6 ± 1 µM

stoichiometry N [6]: 2
Compound: XdpR, TetR family transcriptional regulator of the xdo operon (natural protein)

— paper PMC5891007, “The crystal structure of XdpB, the bacterial old yellow enzyme, in an FMN-free form” (PLoS ONE, 2018)
